B1: E3 ubiquitin-protein ligase pellino homolog 2 (Homo sapiens), Q9HAT8 (parent)
chain: MFSPGQEEHCAPNKEPVKYGELVVLGYNGALPNGDRGRRKSRFALYKRPKANGVKPSTVHVISTPQASKAISCKGQHSISYTLSRNQTVVVEYTHDKDTDMFQVGRSTESPIDFVVTDTISGSQNTDEAQITQSTISRFACRIVCDRNEPYTARIFAAGFDSSKNIFLGEKAAKWKNPDGHMDGLTTNGVLVMHPRGGFTEESQPGVWREISVCGDVYTLRETRSAQQRGKLVESETNVLQDGSLIDLCGATLLWRTADGLFHTPTQKHIEALRQEINAARPQCPVGLNTLAFPSINRKEVVEEKQPWAYLSCGHVHGYHNWGHRSDTEANERECPMCRTVGPYVPLWLGCEAGFYVDAGPPTHAFTPCGHVCSEKSAKYWSQIPLPHGTHAFHAACPFCATQLVGEQNCIKLIFQGPID

Variants of: B1
Conditions: with irak1_human IRAK1, P51617
irak1_human IRAK1, P51617, sequence (P51617 whole entry, looked up): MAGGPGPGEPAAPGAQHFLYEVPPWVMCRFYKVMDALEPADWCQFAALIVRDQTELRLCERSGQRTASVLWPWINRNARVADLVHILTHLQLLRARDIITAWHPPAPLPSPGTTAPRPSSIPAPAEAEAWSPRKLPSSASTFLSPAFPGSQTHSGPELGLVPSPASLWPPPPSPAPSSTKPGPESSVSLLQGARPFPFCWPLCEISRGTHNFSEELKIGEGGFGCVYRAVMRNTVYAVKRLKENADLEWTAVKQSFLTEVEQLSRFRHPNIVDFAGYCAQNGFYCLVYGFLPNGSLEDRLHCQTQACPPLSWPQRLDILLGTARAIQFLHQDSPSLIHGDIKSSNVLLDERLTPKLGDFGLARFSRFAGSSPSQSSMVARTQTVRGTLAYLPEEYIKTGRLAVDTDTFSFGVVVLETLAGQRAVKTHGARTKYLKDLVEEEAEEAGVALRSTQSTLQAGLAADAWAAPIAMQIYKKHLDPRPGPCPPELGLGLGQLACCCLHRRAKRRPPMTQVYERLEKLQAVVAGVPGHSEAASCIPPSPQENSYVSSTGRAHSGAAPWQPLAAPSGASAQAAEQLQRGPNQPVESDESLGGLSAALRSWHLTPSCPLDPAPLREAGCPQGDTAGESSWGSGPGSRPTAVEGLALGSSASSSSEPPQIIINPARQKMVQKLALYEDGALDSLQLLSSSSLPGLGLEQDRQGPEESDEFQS

Row | effect of a mutation on the interaction | Variant
1 | disrupting interaction | T187A;N188A
2 | disrupting interaction | R106A

From IntAct's records for PubMed 19081057
